No end group written: not given here.
Biological target: T1, human Proliferating Cell Nuclear Antigen (hPCNA) (human, UniProt P12004)
Test: SPR
Conditions: not given

T1 sequence (P12004 1-259): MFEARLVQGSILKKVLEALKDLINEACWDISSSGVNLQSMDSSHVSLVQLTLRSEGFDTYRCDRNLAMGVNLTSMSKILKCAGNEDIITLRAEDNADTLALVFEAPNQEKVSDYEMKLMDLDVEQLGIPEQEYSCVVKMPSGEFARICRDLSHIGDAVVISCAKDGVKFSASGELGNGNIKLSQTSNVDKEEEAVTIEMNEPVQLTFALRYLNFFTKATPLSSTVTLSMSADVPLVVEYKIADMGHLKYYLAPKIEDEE

| Molecule | Kd [nM] |
| --- | --- |
| KRRQKKITDYFHSKR-NH2 [p21μ–Pogo] | 8.82 |
| KRRMQTLESFFHSKR-NH2 [p21μ–pol η] | 2540 |
| KRRQRRVTDFFHSKR-NH2 [p21μ–Cdt1] | 8.76 |

Biological target: T1, human Proliferating Cell Nuclear …
Test: SPR
Conditions: not given
Remark: another data set of the same source

| Molecule | Kd [nM] | fold lower affinity than p21μ [fold] | fold decrease in affinity relative to p21μ [fold] |
| --- | --- | --- | --- |
| KRRQTRITEYFHSKR-NH2 (designed binder) [p21μ–RD2] | 1.12 |  |  |
| KRRQTSMTDHYHSKR-NH2 [p21μ–F150H] | 159 |  |  |
| KRRNTSMTDFYHSKR-NH2 [p21μ–Q144N] | 772 |  |  |
| KRRQTSMTDYFHSKR-NH2 [p21μ–FY150/151YF] | 2.18 |  |  |
| KRRQRKMTDFYHSKR-NH2 [p21μ–TS145/146RK] | 17.3 |  |  |
| KRRQTSMDEFYHSKR-NH2 [p21μ–TD148/149DE] |  | 28 |  |
| KRRDTSMTDFYHSKR-NH2 [p21μ–Q144D] | 714 |  |  |
| KRRQTSMEEFYHSKR-NH2 [p21μ–TD148/149EE] |  | 4 |  |
| KRRQKRMTDFYHSKR-NH2 [p21μ–TS145/146KR] | 37 |  |  |
| KRRQRRMTDFYHSKR-NH2 [p21μ–TS145/146RR] | 1.83 |  |  |
| KRRQKSMTDFYHSKR-NH2 [p21μ–T145K] |  |  | 8 |
| KRRQTSMEDFYHSKR-NH2 [p21μ–T148E] |  | ~6 |  |
| KRRQTSITDFYHSKR-NH2 [p21μ–M147I] | 11.1 |  |  |
| KRRQRSMTDFYHSKR-NH2 [p21μ–T145R] |  |  | 7 |

Biological target: hPCNA (Homo sapiens, UniProt P12004)
Sequence (P12004 whole entry): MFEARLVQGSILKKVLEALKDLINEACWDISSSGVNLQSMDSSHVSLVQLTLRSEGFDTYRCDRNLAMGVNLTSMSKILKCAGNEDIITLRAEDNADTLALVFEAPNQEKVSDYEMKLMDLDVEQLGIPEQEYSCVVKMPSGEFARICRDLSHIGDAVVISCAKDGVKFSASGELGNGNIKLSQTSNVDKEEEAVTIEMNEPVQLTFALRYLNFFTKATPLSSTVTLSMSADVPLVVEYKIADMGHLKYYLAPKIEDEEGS
Test: not given
Conditions: isothermal calorimetry; ref [22]; cited from earlier work

| Molecule | fold decrease in binding affinity compared with the analogous native peptide (residues 139–160) [fold] |
| --- | --- |
| Tyr151Phe^P8–modified p21 peptide: literature p21 (residues 139–160) peptide with Tyr151Phe modification (GRKRRQTSMTDFFHSKRRLIFS; UniProt P38936 139-160, looked up, variant Y151F) [reference compound] | 3 |

Same assay, conditions: p21 protein binding hPCNA; ref [13], [14], [15]; cited from earlier work

| Molecule | Kd [nM] |
| --- | --- |
| p21: cell-cycle regulator protein, highest affinity hPCNA-interacting protein known | 2.5 to 90 |

— article PMC8191301 (The Journal of Biological Chemistry, 2021)
